Assay [1] relates to GFP+F10-snail+ tumor cells. As to the kind of experiment: In vivo drug efficacy of each anti-FSTL1 antibody clone, Snail+ tumor bone metastasis model (Example 32). Also on record: species or system mouse. Particulars: intraperitoneal 10 mg/kg on days 4 and 7; for mouse survival period (life-prolonging effect): FIG. 27; for suppressive activity against subcutaneous tumor growth: FIG. 26, vs control antibody. Here is the method:
• Day 0: transplantation of GFP+F10-snail+ tumor cells (3×10^5 cells subcutaneously & 2×10^4 cells intravenously) • Day 4: intraperitoneal administration of the antibody (first dose, 10 mg/kg) • Day 7: intraperitoneal administration of the antibody (second dose, 10 mg/kg)
Subcutaneous tumor was measured 4, 7, 10, 14, 17, 20, and 23 days after tumor cell transplantation.

The target in assay [2] is T1, FSTL1 (Homo sapiens, UniProt Q12841).
T1 sequence (Q12841 21-308): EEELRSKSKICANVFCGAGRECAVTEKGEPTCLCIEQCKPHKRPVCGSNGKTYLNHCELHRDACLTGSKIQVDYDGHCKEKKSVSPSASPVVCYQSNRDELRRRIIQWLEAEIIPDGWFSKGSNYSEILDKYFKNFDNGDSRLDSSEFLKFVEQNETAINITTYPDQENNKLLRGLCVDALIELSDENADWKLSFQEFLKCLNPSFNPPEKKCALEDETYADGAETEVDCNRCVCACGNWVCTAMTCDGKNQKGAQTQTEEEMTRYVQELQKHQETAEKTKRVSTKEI
As to the kind of experiment: Inhibition of induction of MSCs, cancer-associated MSCs and M-MDSCs by FSTL1 in mouse bone marrow cells (Examples 13 to 15). On the set-up: purchased R&D Systems, Inc. 1694-FN-050. The class given is cell-based. Here is the method: The antibody clone (#6-55, #7, […], #13, or #22) was evaluated for its activity by the same testing method as in Example 13. #6-55 was set as a positive control for activity. […] Mouse bone marrow cells were supplemented with FSTL1 and the predetermined concentration of each antibody and cultured for 8 days. 5×10^4 cells/well were separated from each culture system and evaluated for the ability to differentiate into adipocytes using an adipocyte differentiation reagent included in “Mesenchymal Stem Cell Functional Identification Kit (R&D Systems, Inc., Cat. No. SCO10)”. For the evaluation method, the cells were supplemented with the adipocyte differentiation reagent and cultured for 8 days. Then, adipocytes per culture system were counted under a microscope for evaluation. In the graph, none is depicted in the leftmost bar, and the control antibody is depicted in the second bar from the left followed by the anti-FSLT1 antibody clones. Adipocytes were not confirmed for any of the anti-FSLT1 antibodies. It is understood that the differentiation induction of MSCs serving as the original source is inhibited.
Mouse bone marrow cells (bone marrow cells prepared in the same way as in Example 4) were supplemented with 20 ng/mL (final concentration) of FSTL1 and 20.0, 10.0, 5.0, or 2.5 μg/ml (final concentration) of the rat anti-FSTL1 antibody or #6-55. Also, mouse bone marrow cells were supplemented with 20.0 μg/ml (final concentration) each of their respective control antibodies, a rat IgG2b isotype control (R&D Systems, Inc., Cat. No. MAB0061, clone 141945) and an anti-DNP antibody. The cells were cultured for 8 days, and the inhibitory activity of each antibody against the induction of MSCs, cancer-associated MSCs, and M-MDSCs by FSTL1 was evaluated in the same way as in Example 13 (FIG. 40A). […] The inhibition of regulatory T cells shown in Patent Literature 1 (WO2009/028411) is presumably a consequence mediated by the inhibition of MSC induction. […]

Assay [3] has as its target T2, mouse FSTL1 (Mus musculus, UniProt Q62356).
T2 construct: AAA linker + 10xHis (C); made in house; host or cells: Expi293 (transient expression; purified from culture supernatant on HisPur Cobalt Resin)
T2 sequence (Q62356 with tags, fused parts or gaps): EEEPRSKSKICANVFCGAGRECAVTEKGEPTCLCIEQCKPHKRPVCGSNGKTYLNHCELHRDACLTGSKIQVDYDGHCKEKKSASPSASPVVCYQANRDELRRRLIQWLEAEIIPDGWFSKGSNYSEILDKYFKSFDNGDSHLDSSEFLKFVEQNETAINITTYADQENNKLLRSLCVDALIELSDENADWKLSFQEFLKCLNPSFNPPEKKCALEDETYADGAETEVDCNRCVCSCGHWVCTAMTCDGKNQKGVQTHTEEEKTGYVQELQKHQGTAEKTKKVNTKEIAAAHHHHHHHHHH
As to the kind of experiment: ELISA, binding activity of purified antibody against mouse FSTL1 (Example 2). On the procedure: The reactivity of the obtained antibody clones described above with FSTL1 was evaluated by ELISA under the following conditions.
Antibodies used: anti-dinitrophenyl (DNP) antibody (negative control), #5-2, #5-3, #5-8, #5-10, #5-43, #6-55, and #7-34
FIGS. 64 and 65 show results of evaluating binding activity under the condition of Table 3 as to clones differing in screening and antibody purification timings.
Background: In an ELISA, binding on a coated surface is turned into a signal by an enzyme label.

The mark [4] stands for this setting: Example 14, #6-55 as positive control.
Where [5] appears, read: antibody diluted from 100 ng/ml.
[6] abbreviates: cross reactivity test, antibody diluted from 1000 ng/ml.

Substitutions are numbered along the chain they refer to. “Also recorded” adds a separate entry of the source.

B1: #33: chicken-mouse chimeric anti-FSTL1 antibody clone; variable regions SEQ ID NO: 823 (light), 825 (heavy) (antibody, V domains shown)
VH: AVTLDESGGGLQTPGGGLSLVCKASGFTFSSFNMNWVRQAPGKGLEYVAEISGTGSSTYYGSAVKGRATISRDNGQSTVRLQLNNLRAEDTATYFCARGDGAYSIDAWGHGTEVIVSS
VL: ASTQPSSVSANPGETVEITCSGDSSYYGWFQQKSPGSAPVTVIYDNTNRPSDIPSRFSGSKSGSTATLTITGVRAEDEAVYYCGGYDSSTYDGIFGAGTTLTVL
modifications: mouse constant regions
As to B1, the “mouse survival period (life-prolonging effect)” value in assay [1] is listed as “therapeutic effects equal to or higher than those of #6-55”. The “inhibitory activity against the induction of MSCs, cancer-associated MSCs, and M-MDSCs by FSTL1” value (from here on “inhibitory activity”) in assay [2] (setting [4]) is on record as “inhibitory activity equivalent to or higher than that of the positive control”.

B2: #5-8: chicken-mouse chimeric anti-FSTL1 antibody clone; variable regions SEQ ID NO: 771 (light), 773 (heavy) (antibody, V domains shown)
VH: AVTLDESGGGLQTPGGGLSLVCKGSGFTFSSFNMFWVRQAPGKGLEWVAGIGKDGVPKYGTAVDGRATISKDNGQSTMRLQLNNLRAEDTGTYFCAKAAGGCSYDWCGIYTGDIDTWGHGTEVIVSS
VL: ASTQPSSVSANPGEAVKITCSGGSGSYYGWYQQKSPGSAPVTVIYNNNQRPSDIPSRFSGSKSGSTATLTITGVQAEDEAVYFCGGYDSSTGHGGIFGAGTTLTVL
modifications: mouse constant regions
B2: the “binding activity against mouse FSTL1” value in assay [3] (setting [5]) is recorded as “exhibited no binding activity”.

B3: #8-1: chicken-mouse chimeric anti-FSTL1 antibody clone; variable regions SEQ ID NO: 791 (light), 793 (heavy) (antibody, V domains shown)
VH: B2 VH with G17A, T61A, T111A
VL: B2 VL with T91S
modifications: mouse constant regions
For the molecule B3, the “binding activity against mouse FSTL1” value in assay [3] (setting [5]) is “slightly exhibited binding activity; also recorded: very slightly exhibited binding activity”.

B4: #8-4: chicken-mouse chimeric anti-FSTL1 antibody clone; variable regions SEQ ID NO: 795 (light), 797 (heavy) (antibody, V domains shown)
VH: AVTLDESGGGLQTPGGGLSLVCKGSGFTLSSFNMFWVRQAPGKGLEWVAGVGKDGGTAYGAAVDGRATISRDSGQSTVRLQLNNLRAEDTGTYFCAKAAGGCSYSWCGAYVGDLDAWGHGTEVIVSS
VL: ASSQPSSVSANPGETVKITCSGGSGYYYGWYQQKSPGSAPVTVIYNNDNKPSDIPSRFSGSKSGSTGTLTITGVQVEDEAVYFCGGYDNSGTGIFGAGTTLTVL
modifications: mouse constant regions
On to B4, for which the “binding activity against mouse FSTL1” value in assay [3] (setting [5]) is given as “exhibited no binding activity”.

B5: #6-55: chicken-mouse chimeric anti-FSTL1 antibody clone; variable regions SEQ ID NO: 783 (light), 785 (heavy) (antibody, V domains shown)
VH: AVTLDESGGGLQTPGGALSLVCKGSGFTFTSVTMQWVRQAPGKGLEWVASVCSGSSTYYAPAVKGRATISRDNGQSTVRLQLSNLRPEDTGTYYCAKIAGRARWSCTSAAYNIDAWGHGTEVIVSS
VL: ASTQPSSVSAIPGETVKITCSGGGNNYGWYQQRSPGSAPVTVIYYNDNRPSNIPSRFSGSTSGSTSTLTITGVQADDEAIYYCGSWDSNTDSGIFGAGTTLTVL
modifications: mouse constant regions
For B5, in assay [1], the “suppressive activity against subcutaneous tumor growth” value is “statistically significant suppressive activity” and the “mouse survival period (life-prolonging effect)” value is listed as “statistically significant life-prolonging effect”. In assay [3] (setting [6]), the “binding activity against mouse FSTL1” value was “specific and equivalently strong binding activity”. The “inhibitory activity” value in assay [2] (Example 15, FSTL1 20 ng/mL, antibody 20.0, 10.0, 5.0, or 2.5 μg/ml, dose dependence not confirmed) was “at the same level; also recorded: slightly superior”.

B6: #7-34: chicken-mouse chimeric anti-FSTL1 antibody clone; variable regions SEQ ID NO: 787 (light), 789 (heavy) (antibody, V domains shown)
VH: AVTLDESGGGLQTPGGGLSLVCKASGFTFSSVTMQWVRQAPGKGLEWVASICSGSSTYYGPAVKGRATISRDNGQNTVRLQLNNLRAEDTATYYCAKIVGRGRWSCTSAAYNIDAWGHGTEVIVSS
VL: B5 VL with I11N, R33K, D47N, D76E, I80V, W86Y, D87E, S88G, N89S
modifications: mouse constant regions
Turning to B6, in assay [3] (setting [6]), the “binding activity against mouse FSTL1” value was “specific and equivalently strong binding activity”.

B7: #13: chicken-mouse chimeric anti-FSTL1 antibody clone; variable regions SEQ ID NO: 815 (light), 817 (heavy) (antibody, V domains shown)
VH: B6 VH
VL: ASTQPSSVSANPGETVKITCSGGGNNYGWYQQKSPGSAPVTVIYNNNNRPSNIPSRFSGSKSGSTNTLTITGVQAEDEAVYYCGSYDSSSDSGIFGAGTTLTVL
modifications: mouse constant regions
Consider B7, for which the “suppressive activity against subcutaneous tumor growth” value in assay [1] was “all of the clones except for #13 exhibited statistically significant suppressive activity”. For the same molecule, the “inhibitory activity” value in assay [2] (setting [4]) is given as “inhibitory activity equivalent to or higher than that of the positive control”.

The record behind these values is patent US20180021429A1, “ANTICANCER AGENTS OR ANTIMETASTATIC AGENTS USING FSTL1 AND COMBINATION DRUG THEREOF” (PHARMA FOODS INTERNATIONAL CO., LTD., priority 2015, published 2018).
